For one assay, the target named is T1, rhAxl-Fc protein (Homo sapiens, UniProt P30530).
T1 construct: purchased R and D Systems 154AL/CF
T1 sequence (P30530 26-451 limits assumed): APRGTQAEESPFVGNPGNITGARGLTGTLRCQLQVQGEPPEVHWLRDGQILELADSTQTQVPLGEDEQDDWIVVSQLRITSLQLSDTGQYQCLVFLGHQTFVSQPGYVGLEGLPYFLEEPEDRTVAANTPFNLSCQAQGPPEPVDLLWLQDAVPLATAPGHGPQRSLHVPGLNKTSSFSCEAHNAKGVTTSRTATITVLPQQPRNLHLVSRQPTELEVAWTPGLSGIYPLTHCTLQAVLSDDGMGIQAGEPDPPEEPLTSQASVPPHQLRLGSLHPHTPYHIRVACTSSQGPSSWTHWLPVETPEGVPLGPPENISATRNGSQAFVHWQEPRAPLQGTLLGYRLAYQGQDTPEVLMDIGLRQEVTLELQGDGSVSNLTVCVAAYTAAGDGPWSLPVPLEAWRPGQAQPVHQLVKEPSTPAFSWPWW
The assay is described as follows: ELISA binding on immobilized rhAxl-Fc protein. The settings on record: starting concentration 5 μg/ml, 1/2 serial dilutions. On the procedure: (§1) Briefly, the recombinant human Axl-Fc (R and D systems, cat N° 154AL/CF), rhDtk (R and D Systems, cat N° 859-DK) or rhMer-Fc (R and D Systems, cat N° 891-MR) proteins were coated overnight at 4° C. to Immulon II 96-well plates and, after a 1 h blocking step with a 0.5% gelatine solution, 1613F12 was added for an additional 1 h at 37° C. at starting concentration of 5 μg/ml (3.33 10^−8M). Then ½ serial dilutions were done over 12 columns. Plates were washed and a goat anti-mouse (Jackson) specific IgG-HRP was added for 1 h at 37° C. Reaction development was performed using the TMB substrate solution. The isotype control antibody mIgG1 and the commercial anti-Axl Mab 154 antibody were also used in parallel. Coating controls were performed in presence of a goat anti-human IgG Fc polyclonal serum labelled with HRP (Jackson, ref 109-035-098) and/or in presence of a HRP-coupled anti-Histidine antibody (R and D Systems, ref: MAB050H).

Another assay deals with T2, rhDtk-Fc (Homo sapiens, UniProt Q06418).
T2 construct: purchased R and D Systems 859-DK
The assay is described as follows: ELISA binding on immobilized rhDtk-Fc protein. The settings on record: starting concentration 5 μg/ml, 1/2 serial dilutions. On the procedure: as §1

Assay [1] deals with T3, human Axl receptor on the surface of human tumor cells (human, UniProt P30530 26-894).
T3 construct: Endogenous Axl on human tumor cell lines (SN12C, Calu-1, MDA-MB435S, MDA-MB231, NCI-H125, Panc1); also called cell-surface Axl; membrane Axl receptor
T3 sequence: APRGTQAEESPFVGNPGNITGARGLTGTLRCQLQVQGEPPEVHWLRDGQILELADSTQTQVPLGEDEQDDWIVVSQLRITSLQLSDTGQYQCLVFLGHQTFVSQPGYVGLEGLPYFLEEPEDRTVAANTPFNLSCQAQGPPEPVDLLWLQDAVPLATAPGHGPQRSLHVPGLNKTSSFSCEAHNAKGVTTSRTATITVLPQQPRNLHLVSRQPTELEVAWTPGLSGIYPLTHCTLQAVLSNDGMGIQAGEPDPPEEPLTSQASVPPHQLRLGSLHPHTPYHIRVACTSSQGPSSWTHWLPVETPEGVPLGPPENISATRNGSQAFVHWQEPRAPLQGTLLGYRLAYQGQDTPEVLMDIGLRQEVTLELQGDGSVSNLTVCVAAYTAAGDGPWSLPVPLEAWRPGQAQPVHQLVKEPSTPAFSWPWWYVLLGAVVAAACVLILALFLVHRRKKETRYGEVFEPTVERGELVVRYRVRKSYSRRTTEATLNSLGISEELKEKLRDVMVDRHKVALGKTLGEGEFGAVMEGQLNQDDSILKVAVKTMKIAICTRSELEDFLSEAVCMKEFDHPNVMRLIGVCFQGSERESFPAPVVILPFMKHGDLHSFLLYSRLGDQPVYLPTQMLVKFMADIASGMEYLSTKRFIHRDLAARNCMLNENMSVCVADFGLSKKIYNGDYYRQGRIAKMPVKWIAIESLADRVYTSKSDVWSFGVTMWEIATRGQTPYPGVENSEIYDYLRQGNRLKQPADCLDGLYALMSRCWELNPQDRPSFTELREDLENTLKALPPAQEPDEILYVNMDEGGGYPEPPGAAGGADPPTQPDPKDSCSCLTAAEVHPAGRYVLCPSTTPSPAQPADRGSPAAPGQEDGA
The assay is described as follows: flow cytometry on human tumor cells.

The target in a further assay is T4, rhMer-Fc (Homo sapiens, UniProt Q12866).
T4 construct: purchased R and D Systems 891-MR
Description: ELISA binding on immobilized rhMer-Fc protein. The settings on record: starting concentration 5 μg/ml, 1/2 serial dilutions. How it is done: as §1

Assay [2] relates to MCF7 human breast tumor cell line. The assay is described as follows: FACS binding on MCF7 cells. On the procedure: For cell surface binding studies, two fold serial dilutions of a 10 μg/ml (6.66 10^−8 M) primary antibody solution (1613F12, MAB154 or mIgG1 isotype control 9G4 Mab) are prepared and are applied on 2·10^5 cells for 20 min at 4° C. After 3 washes in phosphate-buffered saline (PBS) supplemented with 1% BSA and 0.01% NaN3, cells were incubated with secondary antibody Goat anti-mouse Alexa 488 ( 1/500° dilution) for 20 minutes at 4° C. After 3 additional washes in PBS supplemented with 1% BSA and […], cells were analyzed by FACS (Facscalibur, Becton-Dickinson). At least 5000 cells were assessed to calculate the mean value of fluorescence intensity.
1613F12 dose response curves were prepared. MFIs obtained using the various human tumor cells were then analysed with Prism software.

Assay [3] addresses T5, rhDtk-Fc (R and D Systems, cat N° 859-DK) (human, UniProt Q06418 41-428, limits assumed).
T5 construct: Bought protein; also called Tyro3; not shown: Fc of human IgG
T5 sequence (looked up): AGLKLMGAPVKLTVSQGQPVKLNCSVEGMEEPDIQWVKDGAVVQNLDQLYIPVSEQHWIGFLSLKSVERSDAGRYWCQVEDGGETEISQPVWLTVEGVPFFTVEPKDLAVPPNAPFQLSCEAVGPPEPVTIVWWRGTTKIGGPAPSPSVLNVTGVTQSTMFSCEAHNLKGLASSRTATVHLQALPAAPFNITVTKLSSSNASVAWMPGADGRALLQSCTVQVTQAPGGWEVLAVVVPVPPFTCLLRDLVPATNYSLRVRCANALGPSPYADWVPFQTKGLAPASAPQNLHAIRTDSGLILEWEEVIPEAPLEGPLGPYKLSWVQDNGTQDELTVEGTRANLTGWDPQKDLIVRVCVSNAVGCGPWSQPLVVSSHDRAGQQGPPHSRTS
The assay is described as follows: ELISA on coated protein.

T4 sequence (Q12866 with tags, fused parts or gaps limits assumed): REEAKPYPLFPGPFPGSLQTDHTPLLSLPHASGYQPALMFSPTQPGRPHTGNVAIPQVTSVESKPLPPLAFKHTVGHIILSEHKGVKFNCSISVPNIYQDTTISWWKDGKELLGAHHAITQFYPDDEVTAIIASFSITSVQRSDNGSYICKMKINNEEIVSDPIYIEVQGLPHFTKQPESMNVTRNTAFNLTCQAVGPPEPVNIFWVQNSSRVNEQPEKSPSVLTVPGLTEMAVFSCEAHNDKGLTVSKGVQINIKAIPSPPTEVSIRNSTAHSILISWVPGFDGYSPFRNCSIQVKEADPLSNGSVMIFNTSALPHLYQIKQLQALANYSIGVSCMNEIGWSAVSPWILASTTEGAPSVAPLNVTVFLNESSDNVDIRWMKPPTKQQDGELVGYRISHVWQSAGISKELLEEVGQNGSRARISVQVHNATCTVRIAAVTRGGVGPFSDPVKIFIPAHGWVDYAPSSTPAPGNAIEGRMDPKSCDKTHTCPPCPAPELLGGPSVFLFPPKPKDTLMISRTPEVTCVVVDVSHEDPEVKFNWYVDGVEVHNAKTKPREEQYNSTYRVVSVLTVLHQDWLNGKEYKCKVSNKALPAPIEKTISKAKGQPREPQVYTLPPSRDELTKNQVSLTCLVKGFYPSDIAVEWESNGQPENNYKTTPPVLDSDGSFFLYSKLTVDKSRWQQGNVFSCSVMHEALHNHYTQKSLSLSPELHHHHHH
T2 sequence (Q06418 with tags, fused parts or gaps limits assumed): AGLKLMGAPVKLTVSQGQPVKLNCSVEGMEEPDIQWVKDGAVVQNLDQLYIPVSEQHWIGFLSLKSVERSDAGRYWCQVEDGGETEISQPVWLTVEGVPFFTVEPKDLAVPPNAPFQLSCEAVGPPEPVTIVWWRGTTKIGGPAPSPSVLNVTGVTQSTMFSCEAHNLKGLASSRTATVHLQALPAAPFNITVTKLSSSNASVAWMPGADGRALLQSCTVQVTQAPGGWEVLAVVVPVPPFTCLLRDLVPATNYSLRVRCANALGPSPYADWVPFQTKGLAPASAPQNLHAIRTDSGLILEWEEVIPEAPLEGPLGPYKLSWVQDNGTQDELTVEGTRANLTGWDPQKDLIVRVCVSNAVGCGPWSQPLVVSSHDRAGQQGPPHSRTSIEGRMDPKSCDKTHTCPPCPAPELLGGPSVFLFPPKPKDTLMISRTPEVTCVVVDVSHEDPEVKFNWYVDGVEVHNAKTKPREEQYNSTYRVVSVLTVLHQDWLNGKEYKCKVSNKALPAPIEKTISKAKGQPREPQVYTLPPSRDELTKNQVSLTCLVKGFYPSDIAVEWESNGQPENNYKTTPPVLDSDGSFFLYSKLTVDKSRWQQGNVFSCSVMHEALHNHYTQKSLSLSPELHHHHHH

B1: m1613F12 (murine 1613F12, hybridoma CNCM I-4505) (antibody, V domains shown)
VH: EVHLQQSGAELVKPGASVKLSCTASGFNIRDTYIHWVKQRPEQGLEWIGRLDPANGHTKYGPNFQGRATMTSDTSSNTAYLQLSSLTSEDTAVYYCARGAYYYGSSGLFYFDYWGQGTTLSVSS
VL: DVQITQSPSYLATSPGETITINCRASKSISKYLAWYQEKPGKTNKLLIYSGSTLQSGVPSRFSGSGSGTDFTLTISSLEPEDFAMYFCQQHHEYPLTFGAGTELELK
notes: Murine monoclonal antibody; also called Axl antibody
Consider B1, for which the “binding on rhAxl-Fc protein (ELISA)” value with rhAxl-Fc protein is listed as “only binds to the rhAxl-Fc protein”. Also, the “binding on rhDtk (ELISA)” value in the assay with rhDtk-Fc is reported as “does not bind”. The binding result in assay [1] is recorded as “binds”; in assay [3], “no binding”. Moreover, the “binding on rhMer (ELISA)” value in the assay with rhMer-Fc is recorded as “does not bind”. The “binding of Axl receptor on MCF7 (FACS)” value in assay [2] was “No binding of Axl receptor was observed”.

The values above are taken from patent publication US20160106861A1, “AXL ANTIBODY-DRUG CONJUGATE AND ITS USE FOR THE TREATMENT OF CANCER” (PIERRE FABRE MEDICAMENT, priority 2013, published 2016).
